We go through one molecule from patent publication CN110655572A.

The target in assay [1] is 苏丹型GP蛋白 (苏丹型埃博拉病毒 (SUDV)). The assay can be described thus: cell-based or functional assay.
The target of assay [2] is 扎依尔型GP蛋白 (扎依尔型埃博拉病毒 (ZEBOV)). The assay can be described thus: cell-based or functional assay.
Assay [3] has as its target 马尔堡病毒GP蛋白 (马尔堡病毒 (MARV)). The assay can be described thus: cell-based or functional assay.
In assay [4] the target is 苏丹型GP蛋白 (苏丹型埃博拉病毒 (SUDV)). The assay can be described thus: ELISA, GP protein coated on plate, goat anti-human IgG-HRP detection.
Assay [5] deals with 扎依尔型GP蛋白 (扎依尔型埃博拉病毒 (ZEBOV)). Described as above.
For assay [6], the target named is 马尔堡病毒GP蛋白 (马尔堡病毒 (MARV)). The assay is described as above.

B1: 单克隆抗体40C1L (antibody, V domains shown)
VH: EVQLVQSGAEVKRPGESLKISCKTSGYSFPTYWITWVRQMPGKGLEWMGTIDLSDSETKYSPSFDGQVTISADKSINTAYLQWSSLKASDSATYYCAMRYSNYRTWFNVWGPGVLVTVSS
VL: SYDLTQPPSVSVSPGQTARITCGGDNIGSEAVHWYQQQPPQAPVLVIYYNRERPSGIPERFSGSKSGNTATLTISGVEAGDEADYYCQLWDSSSDYPLFGGGTRLTVL
On to B1, for which the 假病毒中和 最大半数抑制浓度(IC50) in assay [1] stood at 3.12 µg/mL; in assay [2], 25.3 µg/mL; in the assay with 马尔堡病毒GP蛋白 (马尔堡病毒 (MARV)) [3], 14.5 µg/mL. The values for the EC50 (in assay [4]; in assay [5]; with 马尔堡病毒GP蛋白 (马尔堡病毒 (MARV)) [6]) were 2.09 µg/mL, 0.697 µg/mL and 0.342 µg/mL, respectively.
